Results as given in article PMC12561426, “Dissecting the Interplay Between NRF2 and BACH1 at CsMBEs”.

Legend:
[1] = target: NRF2 DBD of NRF2-sMafGχ;sMafG DBD of chimeras (Homo sapiens?;Homo sapiens?, UniProt Q16236;O15525 451-567;1-162, |); test: EMSA; apparent; TEV and 3C cleaved; 150 mM NaCl, 50 mM HEPES pH 7.9, 10% glycerol, 1 mM TCEP, 1 mM DTT, 2 mM MgCl2; 3 nM DNA; TEV and 3C 50 ug/mL each, 4 h 25 °C; competition then O/N 4 °C; gels 4 °C in 1X TBE; details: protein: recombinant;recombinant; tags: 3C/TEV-cleavable linker with His tags to sMafG;fused C-terminal of the linker; copies: 1;1; label: 5' fluorescein on forward strand; blunt
[2] = target: BACH1 DBD of BACH1-sMafGχ;sMafG DBD of chimeras (Homo sapiens?;Homo sapiens?, UniProt O14867;O15525 511-627;1-162, |); test: as above; details: protein: recombinant;recombinant; tags: 3C/TEV-cleavable linker with His tags to sMafG;fused C-terminal of the linker; copies: 1;1; label: 5' fluorescein on forward strand; blunt

B1: HMOX1 CsMBE 30-mer (dsDNA)
DNA 1: CTCGGGACCGTGACTCAGCAGGAAAAACAC
DNA 2: GTGTTTTTCCTGCTGAGTCACGGTCCCGAG
Kd [1]: 58 ± 3 nM | Kd [2]: 49 ± 1.9 nM
